What was measured:
[1] = target: T1, UbcH5B S22R C85K-Ub (stable conjugate) (UniProt P62837 1-147; P0CG48 1-76, S22R | C85K, stably conjugated to Ub (C85K-Ub)); experiment: SPR; Biacore T200, CM-5 chip, 25°C; GST-tagged E3 captured on anti-GST (1,000-2,000 RU); analyte in 25 mM Tris-HCl pH 7.6, 150 mM NaCl, 0.1 mg/ml BSA, 1 mM DTT, 0.005% Tween-20; steady-state affinity; GST alone subtracted; details: both partners purified
T1 construct: UbcH5B with S22R and C85K; ubiquitin; mimic of UbcH5B~Ub; also called UbcH5B C85K S22R–Ub; source: made from purified Arabidopsis Uba1, UbcH5B C85K S22R and His-GST-Ub; purified (Ni2+ agarose, TEV cleavage, Source 15S, Superdex 75)

[2] = target: the molecule itself; experiment: crystal structure; XR and UbV.XR mixed 1:1.2; sitting drop, 0.1 M NaHEPES pH 7.5, 1.4 M tri-Na citrate; 1.57 Å

Kd [1] [µM]	Binder	stoichiometry N [2]
12.2	GST-tagged RING domain of XIAP (XR, residues 434-C) (domain or fragment, UniProt P98170 434-497, looked up, XIAP RING domain, residues 434 to the C terminus; also called GST-XR; HisGST-XR; source: E. coli BL21(λDE3) GOLD, purified (glutathione agarose); not shown: His tag, N-terminal, kept) EISTEEQLRRLQEEKLCKICMDRNIAIVFVPCGHLVTCKQCAEAVDKCPMCYTVITFKQKIFMS	–
–	RING domain of XIAP (XR, residues 434-C), tag removed (domain or fragment, UniProt P98170 434-497, looked up, XIAP RING domain, residues 434 to the C terminus; dimeric RING in the crystal; not shown: His-GST, N-terminal, cleaved) EISTEEQLRRLQEEKLCKICMDRNIAIVFVPCGHLVTCKQCAEAVDKCPMCYTVITFKQKIFMS	2
